Where two headings read alike, the source gives them in different places.
Assays:
[1] = target: T1, Interferon receptors on Daudi cells (UniProt P17181); test: cell-based or functional assay
T1 sequence (looked up) 1: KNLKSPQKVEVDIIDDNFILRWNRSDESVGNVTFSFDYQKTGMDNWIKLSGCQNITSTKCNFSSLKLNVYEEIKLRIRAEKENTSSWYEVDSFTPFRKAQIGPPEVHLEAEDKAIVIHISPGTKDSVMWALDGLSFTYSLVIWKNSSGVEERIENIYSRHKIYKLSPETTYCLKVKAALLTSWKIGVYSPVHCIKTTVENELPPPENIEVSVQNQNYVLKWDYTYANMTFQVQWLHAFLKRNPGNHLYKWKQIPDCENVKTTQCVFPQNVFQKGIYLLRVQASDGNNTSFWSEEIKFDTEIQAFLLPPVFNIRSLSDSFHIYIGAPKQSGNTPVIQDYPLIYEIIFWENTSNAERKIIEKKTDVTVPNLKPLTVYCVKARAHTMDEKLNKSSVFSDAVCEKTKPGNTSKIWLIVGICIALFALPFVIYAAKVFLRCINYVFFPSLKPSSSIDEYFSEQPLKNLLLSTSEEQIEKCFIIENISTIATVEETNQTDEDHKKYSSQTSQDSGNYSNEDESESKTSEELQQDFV
T1 sequence (looked up) 2: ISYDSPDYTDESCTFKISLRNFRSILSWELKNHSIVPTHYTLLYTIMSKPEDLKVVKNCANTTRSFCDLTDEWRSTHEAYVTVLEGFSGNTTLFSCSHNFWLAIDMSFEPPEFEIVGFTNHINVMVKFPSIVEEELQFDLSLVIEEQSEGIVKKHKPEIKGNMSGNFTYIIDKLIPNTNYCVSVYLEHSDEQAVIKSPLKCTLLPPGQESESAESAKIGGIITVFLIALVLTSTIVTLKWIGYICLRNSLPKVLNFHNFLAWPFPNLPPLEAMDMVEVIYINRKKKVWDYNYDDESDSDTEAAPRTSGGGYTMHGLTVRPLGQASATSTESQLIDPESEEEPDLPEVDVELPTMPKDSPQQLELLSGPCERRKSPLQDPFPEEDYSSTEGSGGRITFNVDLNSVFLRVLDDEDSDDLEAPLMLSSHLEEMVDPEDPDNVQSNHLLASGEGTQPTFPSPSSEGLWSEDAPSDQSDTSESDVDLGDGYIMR

[2] = target: T2, human OX40 expressed on CHO cells (human, UniProt P43489 29-277); test: FACS on CHO cells transfected with human OX40
T2 construct: whole, on cells; also called hsOX40; CHO-hOX40
T2 sequence (looked up): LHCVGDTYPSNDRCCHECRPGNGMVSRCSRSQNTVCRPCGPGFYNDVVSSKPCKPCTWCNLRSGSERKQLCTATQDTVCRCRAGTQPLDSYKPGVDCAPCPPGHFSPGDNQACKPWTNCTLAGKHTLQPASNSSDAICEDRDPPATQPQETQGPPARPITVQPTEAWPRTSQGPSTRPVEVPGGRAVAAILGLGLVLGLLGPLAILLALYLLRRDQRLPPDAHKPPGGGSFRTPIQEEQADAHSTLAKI

[3] = target: T3, OX40 on reporter cells (Jurkat-OX40-NFκB-luciferase; HEK293-OX40-NFκB-Luc) (UniProt P43489 29-277); test: cell-based or functional assay
T3 sequence (looked up): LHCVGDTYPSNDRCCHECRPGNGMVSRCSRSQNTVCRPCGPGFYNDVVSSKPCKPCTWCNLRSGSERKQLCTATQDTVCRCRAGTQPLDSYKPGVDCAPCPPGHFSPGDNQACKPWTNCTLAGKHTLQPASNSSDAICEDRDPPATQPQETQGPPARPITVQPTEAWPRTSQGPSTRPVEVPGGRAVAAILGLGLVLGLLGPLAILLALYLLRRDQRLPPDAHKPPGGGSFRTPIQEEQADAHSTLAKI

[4] = target: T3, OX40 on reporter cells …; test: cell-based or functional assay; remark: listed apart in the source
[5] = target: T4, human OX40 protein (human, UniProt P43489 29-216, limits assumed); test: ELISA, plate coated with human OX40 protein, goat-anti-human IgG HRP
T4 construct: also called TNFRSF4; CD134
T4 sequence (looked up): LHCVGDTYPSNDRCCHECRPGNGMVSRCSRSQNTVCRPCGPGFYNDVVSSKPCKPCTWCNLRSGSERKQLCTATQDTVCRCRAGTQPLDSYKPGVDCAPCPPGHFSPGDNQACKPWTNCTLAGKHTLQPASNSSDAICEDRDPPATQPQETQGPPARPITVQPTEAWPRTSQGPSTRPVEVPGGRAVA
Method: The next day, the plate was first washed 3 times with 300 μL PBST (Tween 20: 0.5‰), then blocked with 5% BSA/PBS at 100 μL/well for 2 h, and shaken at room temperature, followed by washing 3 times with 300 μL PBST. Gradient dilutions of the fusion protein samples were prepared in PBS, and then added to the 96-well plate at 100 μL/well; the plate was shaken for 1 h at room temperature, followed by washing 3 times with 300 μL PBST. A secondary antibody goat-anti-human IgG HRP solution was prepared and added to the 96-well plate at 100 μL/well, and the plate was shaken for 1 h at room temperature, followed by washing 4 times with 300 μL PBST. TMB was added at 100 μL/well to develop color for 20 min. 0.6N H₂SO₄ was added at 100 μL/well to stop the color development, and the OD values were determined at 450 nm.

[6] = target: T3, OX40 on reporter cells …; test: cell-based or functional assay; remark: listed apart in the source
[7] = target: T4, human OX40 protein; test: ELISA, plate coated with human OX40 protein, mouse-anti-human IgG HRP
Method: The next day, the plate was first washed 3 times with 300 μL PBST (Tween 20: 0.5‰), then blocked with 5% BSA/PBS at 100 μL/well for 2 h, and shaken at room temperature, followed by washing 3 times with 300 μL PB ST. Gradient dilutions of the fusion protein samples were prepared in PBS, and then added to the 96-well plate at 100 μL/well; the plate was shaken for 1 h at room temperature, followed by washing 3 times with 300 μL PBST. A mouse-anti-human IgG HRP (GenScript Biotech Corp., Art. No. A01854) solution was prepared and added into the 96-well plate at 100 μL/well, and the plate was shaken for 1 h at room temperature, followed by washing 4 times with 300 μL PBST. TMB was added at 100 μL/well to develop color for 20 min. 0.6N H₂SO₄ was added at 100 μL/well to stop the color development, and the OD (optical density) values were determined at 450 nm.

pegylated interferon α2 (Pegberon, Xiamen Amoytop Biotech, Batch No. 201811JS19) (ligand)
proliferation inhibitory activity on Daudi cells, IC50 [1]: 10600 nM

B1: MT01-L1 (antibody, V domains shown)
VH: EVQLQQSGPELVKPGASVKMSCKASGYTFTSYVMHWLKQKPGQGLEWIGYINPYNDGTKYNEKFKGKAKLTSDKSSSTAYMELSSLTSEDSAVYYCANYYGSKFAMDYWGQGTSVTVSS
VL: DIQMTQTTSSLSASLGDRVTISCRASQDISNYLSWYQRKPDGAVKLLIYYTSRLHSGVPSRFSGSGSGADYSLTISNLEQEDIATYFCQQGITLPWTFGGGTKLEIKR
EC50 [2]: 660 ng/mL

B2: MT01-C1 (antibody, human IgG1, V domains shown)
VH: EVQLVQSGAEVKKPGESLKISCKASGYTFTSYVMHWLRQMPGKGLEWMGYINPYNDGTKYNEKFKGQVTISSDKSISTAYLQWSSLKASDTAMYYCANYYGSKFAMDYWGQGTMVTVSS
VL: DIQMTQSPSSVSASVGDRVTITCRASQDISNYLSWYQQKPGGAVKLLIYYTSRLHSGVPSRFSGSGSGTDYTLTISSLQPEDFATYFCQQGITLPWTFGQGTKVEIK
notes: also called OX40 antibody MT01-C1; OX40 mAb MT01-C1
Activation activity of OX40 signaling pathway EC50 [3]: 0.325 nM
activate NFκB-luciferase reporter, EC50 [4]: 0.0452 ng/mL
EC50 [5]: 298 ng/mL
Activation activity of OX40 signaling pathway EC50 [6]: 0.178 nM

B3: MT01-C1 as described in Example 11 (human IgG4 (S228P), κ) (antibody, V domains shown)
VH: EVQLVQSGAEVKKPGESLKISCKASGYTFTSYVMHWLRQMPGKGLEWMGYINPYNDGTKYNEKFKGQVTISSDKSISTAYLQWSSLKASDTAMYYCANYYGSKFAMDYWGQGTMVTVSS
VL: DIQMTQSPSSVSASVGDRVTITCRASQDISNYLSWYQQKPGGAVKLLIYYTSRLHSGVPSRFSGSGSGTDYTLTISSLQPEDFATYFCQQGITLPWTFGQGTKVEIK
notes: also called OX40 antibody MT01-C1; MT01-C1 mAb
EC50 [7]: 1.21 nM

— patent US20210198375A1 (NANJING UMAB BIOPHARMA, published 2021)
